The values below come from publication PMC10163345 (2023).

Where no end group is shown, it is not given here.

In this test the target is constitutively active truncated His-tagged WT calcineurin (6×His–CNAαWT:CNB) (Homo sapiens (Human),Homo sapiens …, UniProt Q08209,P63098). The test is described as follows: His-tag pulldown + immunoblot. Background: A western blot detects proteins with antibodies after separation by electrophoresis.
Sequence of constitutively active truncated His-tagged WT calcineurin (6×His–CNAαWT:CNB) (Q08209 1-392, one chain of several): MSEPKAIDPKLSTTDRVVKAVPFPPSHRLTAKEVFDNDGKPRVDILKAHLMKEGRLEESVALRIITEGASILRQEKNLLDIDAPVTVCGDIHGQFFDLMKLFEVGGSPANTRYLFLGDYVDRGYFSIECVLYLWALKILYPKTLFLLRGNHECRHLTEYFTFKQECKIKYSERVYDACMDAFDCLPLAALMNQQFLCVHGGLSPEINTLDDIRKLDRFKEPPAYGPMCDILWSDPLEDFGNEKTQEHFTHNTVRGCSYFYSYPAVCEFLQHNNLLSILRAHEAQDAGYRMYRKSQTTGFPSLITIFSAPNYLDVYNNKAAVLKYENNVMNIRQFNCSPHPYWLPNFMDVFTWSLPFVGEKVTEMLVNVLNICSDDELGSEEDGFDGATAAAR

As for KGELVPDVRISTIHDI (protein, also: GST-tagged fusion) [GST-tagged POC5 PxIxIT peptide (POC5 PDVRIS)], the binding result is “binds”.
